Laboratory results: patent WO2025083273A1 (dated 2025)

Experiments:
DR3-8i [1] = biological target: T1, DR3-8i (human); assay: BLI, IgG captured on protein A, DR3-8i in solution; single experiment, column not clear
T1 construct: also called purified monomeric DR3-8i antigen protein
T1 chain: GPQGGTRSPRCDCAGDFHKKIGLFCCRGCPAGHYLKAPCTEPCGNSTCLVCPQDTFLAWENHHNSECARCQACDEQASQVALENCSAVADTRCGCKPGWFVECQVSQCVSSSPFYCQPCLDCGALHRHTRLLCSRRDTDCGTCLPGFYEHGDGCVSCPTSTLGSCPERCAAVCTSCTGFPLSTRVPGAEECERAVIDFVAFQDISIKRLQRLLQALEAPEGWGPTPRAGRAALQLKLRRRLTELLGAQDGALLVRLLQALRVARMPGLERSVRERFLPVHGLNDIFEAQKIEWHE

[2] = biological target: T2, human DR3 (TNFRSF25) expressed on cells (human, UniProt Q93038 25-417); assay: cell-based or functional assay
T2 sequence: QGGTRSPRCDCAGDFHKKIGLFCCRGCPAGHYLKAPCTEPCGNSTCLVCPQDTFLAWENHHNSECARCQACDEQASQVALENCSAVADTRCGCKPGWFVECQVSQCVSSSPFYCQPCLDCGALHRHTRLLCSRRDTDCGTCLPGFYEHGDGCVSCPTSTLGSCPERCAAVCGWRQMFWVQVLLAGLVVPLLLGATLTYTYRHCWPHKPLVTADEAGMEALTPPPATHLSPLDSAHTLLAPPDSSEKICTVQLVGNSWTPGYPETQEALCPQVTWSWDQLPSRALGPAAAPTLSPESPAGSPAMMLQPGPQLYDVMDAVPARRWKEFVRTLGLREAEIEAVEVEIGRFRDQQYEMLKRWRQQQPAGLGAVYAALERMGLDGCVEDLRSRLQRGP

DR3-8i [3] = biological target: T1, DR3-8i; assay: BLI, IgG captured on protein A, DR3-8i in solution; Experiment 2
DR3-8i [4] = biological target: T1, DR3-8i; assay: BLI, IgG captured on protein A, DR3-8i in solution; Average
DR3-8i [5] = biological target: T1, DR3-8i; assay: BLI, IgG captured on protein A, DR3-8i in solution; Experiment 1

Binder | Kd (DR3-8i [1]) [nM] | Signal (FLU) [2] [FLU] | Kd (DR3-8i [3]) [nM] | Kd (DR3-8i [4]) [nM] | EC50 (pM), DR3 Jurkat reporter [2] [pM] | Kd (DR3-8i [5]) [nM]
VHg1/VLg4 (antibody, human IgG1, V domains shown, human IgG1) VH: QVQLVQSGGGLVQPGGSLRLSCAASGFTFSSYAMSWVRQAPGKGLEWVSTISDGDSYSYFPDSVKDRFTISRDNSKNTLYLQMNSLRAEDTSVYYCARDRIYGSVQYYAMDYWGQGTLVTVSS VL: DVVMTQSPDSLAVSLGERATISCRASESVEFSGTSLMQWYQQKPRQPLKLLIYAASNVESGVPDRFSGSGSGTDFTLTISSLQAEDVAVYYCQQSRKLPYTFGQGTRLEIK | 0.196 | 2.09e+06 |  |  |  | 
VHg1/VLg2 (antibody, human IgG1, V domains shown, human IgG1) VH: QVQLVQSGGGLVQPGGSLRLSCAASGFTFSSYAMSWVRQAPGKGLEWVSTISDGDSYSYFPDSVKDRFTISRDNSKNTLYLQMNSLRAEDTSVYYCARDRIYGSVQYYAMDYWGQGTLVTVSS VL: DIQLTQSPSSLSASVGDRVTITCRASESVEFSGTSLMQWYQQKAGLAPKLLIYAASNVESGVPSRFSGSGSGTDFTLTISSLQPEDFGTYYCQQSRKLPYTFGQGTRLEIK |  | 2.44e+06 | 0.00202 | 0.159 | 336 | 0.316
VHg2/VLg2 (antibody, human IgG1, V domains shown, human IgG1) VH: QMQLVQSGGGLVKPGGSLRLSCAASGFTFSSYAMSWIRQAPGKGLEWVSTISDGDSYSYFPDSVKDRFTISRDNAKNSLYLQMNSLRAEDTAVYYCTRDRIYGSVQYYAMDYWGRGTLVTVSS VL: DIQLTQSPSSLSASVGDRVTITCRASESVEFSGTSLMQWYQQKAGLAPKLLIYAASNVESGVPSRFSGSGSGTDFTLTISSLQPEDFGTYYCQQSRKLPYTFGQGTRLEIK |  | 2.5e+06 | 0.21 | 0.106 | 103 | 0.001
VHg2/VLs10 (antibody, human IgG1, V domains shown, human IgG1; also called VHg2_VLg10) VH: QMQLVQSGGGLVKPGGSLRLSCAASGFTFSSYAMSWIRQAPGKGLEWVSTISDGDSYSYFPDSVKDRFTISRDNAKNSLYLQMNSLRAEDTAVYYCTRDRIYGSVQYYAMDYWGRGTLVTVSS VL: ETTLTQSPGTLSLSPGERATLSCRASQSVSSSSLAWYQQKPGQAPRLLIYGASSRATGIPDRFSGSGSGTDFTLTISRLEPEDFAVYYCHQYGGSWTFGKGTKVEIK |  | 2.34e+06 | 0.42 | 0.415 | 644 | 0.41
VHg10/VLg6 (antibody, human IgG1, V domains shown, human IgG1) VH: EVQLVESGGGLVQPGGSLRLSCAASGFTFSSYAMSWVRQAPGKGLEWVSTISDGDSYSYFPDSVKDRFTISRDNSKNTLYLQMNSLRAEDTAVYYCARDRIYGSVQYYAMDYWGQGTLVTVSS VL: DVVMTQSPPSLPVTPGEPASISCRASESVEFSGTSLMQWYLQKPGQSPQVLIYAASNVESGVPDRFSGSGSGTDFTLKISRVEAEDVGVYYCQQSRKLPYTFGQGTRLEIK |  | 2.75e+06 | 0.234 | 0.326 |  | 0.418
VHg1/VLg12 (antibody, human IgG1, V domains shown, human IgG1) VH: QVQLVQSGGGLVQPGGSLRLSCAASGFTFSSYAMSWVRQAPGKGLEWVSTISDGDSYSYFPDSVKDRFTISRDNSKNTLYLQMNSLRAEDTSVYYCARDRIYGSVQYYAMDYWGQGTLVTVSS VL: EIVLTQSPATLSLSPGERATLSCRASESVEFSGTSLMQWYQQKPGQAPRLLIYAASNVESGIPARFSGSGSGTDFTLTISSLEPEDFAVYYCQQSRKLPYTFGQGTKLEIK |  | 2.76e+06 | 0.0445 | 0.0228 | 322 | 0.001
VHg10/VLg11 (antibody, human IgG1, V domains shown, human IgG1) VH: EVQLVESGGGLVQPGGSLRLSCAASGFTFSSYAMSWVRQAPGKGLEWVSTISDGDSYSYFPDSVKDRFTISRDNSKNTLYLQMNSLRAEDTAVYYCARDRIYGSVQYYAMDYWGQGTLVTVSS VL: DIVMTQSPDSLAVSLGERATINCRASESVEFSGTSLMQWYQQKPGQPPKLLIYAASNVESGVPDRFSGSGSGTDFTLTISSLQAEDVAVYYCQQSRKLPYTFGQGTKLEIK |  | 3.24e+06 | 0.244 | 0.205 | 245 | 0.166
VHg6/VLg2 (antibody, human IgG1, V domains shown, human IgG1) VH: QVQLQQSGGGLVQPGGSLRLSCAASGFTFSSYAMSWVRQAPGKGLEWVATISDGDSYSYFPDSVKDRFTISRDNARNSLYLQMNSLRAEDTAVYYCARDRIYGSVQYYAMDYWGRGTLVTVSS VL: DIQLTQSPSSLSASVGDRVTITCRASESVEFSGTSLMQWYQQKAGLAPKLLIYAASNVESGVPSRFSGSGSGTDFTLTISSLQPEDFGTYYCQQSRKLPYTFGQGTRLEIK |  | 2.44e+06 | 0.159 | 0.193 | 118 | 0.227
VHg3/VLg12 (antibody, human IgG1, V domains shown, human IgG1) VH: EVQLVQSGGGLVKPGGSLRLSCAASGFKFSSYAMSWVRQAPGKGLEWLSTISDGDSYSYFPDSVKDRFIISRDNAKNSLYLQMNSLRVEDTGVYYCARDRIYGSVQYYAMDYWGQGTLVTVSS VL: EIVLTQSPATLSLSPGERATLSCRASESVEFSGTSLMQWYQQKPGQAPRLLIYAASNVESGIPARFSGSGSGTDFTLTISSLEPEDFAVYYCQQSRKLPYTFGQGTKLEIK |  | 2.6e+06 | 0.409 | 0.4 | 1480 | 0.39
VHg2/VLg12 (antibody, human IgG1, V domains shown, human IgG1) VH: QMQLVQSGGGLVKPGGSLRLSCAASGFTFSSYAMSWIRQAPGKGLEWVSTISDGDSYSYFPDSVKDRFTISRDNAKNSLYLQMNSLRAEDTAVYYCTRDRIYGSVQYYAMDYWGRGTLVTVSS VL: EIVLTQSPATLSLSPGERATLSCRASESVEFSGTSLMQWYQQKPGQAPRLLIYAASNVESGIPARFSGSGSGTDFTLTISSLEPEDFAVYYCQQSRKLPYTFGQGTKLEIK |  | 2.68e+06 | 0.177 | 0.121 | 117 | 0.0644
VHg10/VLg5 (antibody, human IgG1, V domains shown, human IgG1) VH: EVQLVESGGGLVQPGGSLRLSCAASGFTFSSYAMSWVRQAPGKGLEWVSTISDGDSYSYFPDSVKDRFTISRDNSKNTLYLQMNSLRAEDTAVYYCARDRIYGSVQYYAMDYWGQGTLVTVSS VL: EIVLTQSPGTLSLSPGERGTLSCRASESVEFSGTSLMQWYQQKPGQAPRLLIYAASNVESGIPDRFSGSGSETDFTLTISRLEPEDLAVYYCQQSRKLPYTFGQGTRLEIK |  | 3.08e+06 | 0.259 | 0.246 | 634 | 0.233
VHg6/VLg12 (antibody, human IgG1, V domains shown, human IgG1) VH: QVQLQQSGGGLVQPGGSLRLSCAASGFTFSSYAMSWVRQAPGKGLEWVATISDGDSYSYFPDSVKDRFTISRDNARNSLYLQMNSLRAEDTAVYYCARDRIYGSVQYYAMDYWGRGTLVTVSS VL: EIVLTQSPATLSLSPGERATLSCRASESVEFSGTSLMQWYQQKPGQAPRLLIYAASNVESGIPARFSGSGSGTDFTLTISSLEPEDFAVYYCQQSRKLPYTFGQGTKLEIK |  | 2.47e+06 | 0.0876 | 0.157 | 134 | 0.227
VHg3/VLg13 (antibody, human IgG1, V domains shown, human IgG1) VH: EVQLVQSGGGLVKPGGSLRLSCAASGFKFSSYAMSWVRQAPGKGLEWLSTISDGDSYSYFPDSVKDRFIISRDNAKNSLYLQMNSLRVEDTGVYYCARDRIYGSVQYYAMDYWGQGTLVTVSS VL: DIQMTQSPSSLSASVGDRVTITCRASESVEFSGTSLMQWYQQKPGKAPKLLIYAASNVESGVPSRFSGSGSGTDFTFTISSLQPEDIATYYCQQSRKLPYTFGQGTKLEIK |  | 2.66e+06 | 0.389 | 0.427 | 1770 | 0.464
VHg10/VLg4 (antibody, human IgG1, V domains shown, human IgG1) VH: EVQLVESGGGLVQPGGSLRLSCAASGFTFSSYAMSWVRQAPGKGLEWVSTISDGDSYSYFPDSVKDRFTISRDNSKNTLYLQMNSLRAEDTAVYYCARDRIYGSVQYYAMDYWGQGTLVTVSS VL: DVVMTQSPDSLAVSLGERATISCRASESVEFSGTSLMQWYQQKPRQPLKLLIYAASNVESGVPDRFSGSGSGTDFTLTISSLQAEDVAVYYCQQSRKLPYTFGQGTRLEIK |  | 3.17e+06 | 0.167 | 0.204 | 570 | 0.242
VHg10/VLg12 (antibody, human IgG1, V domains shown, human IgG1) VH: EVQLVESGGGLVQPGGSLRLSCAASGFTFSSYAMSWVRQAPGKGLEWVSTISDGDSYSYFPDSVKDRFTISRDNSKNTLYLQMNSLRAEDTAVYYCARDRIYGSVQYYAMDYWGQGTLVTVSS VL: EIVLTQSPATLSLSPGERATLSCRASESVEFSGTSLMQWYQQKPGQAPRLLIYAASNVESGIPARFSGSGSGTDFTLTISSLEPEDFAVYYCQQSRKLPYTFGQGTKLEIK |  | 3.56e+06 | 0.188 | 0.181 | 132 | 0.175
